This is an account of results in the DeepSol protein solubility set.

A short description of the data set: soluble on expression in E. coli; label from the status in PepcDB or PDB records.
With “MGSDKIHHHHHHMINQVYQLVAPRQFEVTYNNVDIYSDYVIVRPLYMSICAADQRYYTGSRDENVLSQKLPMSLIHEGVGEVVFDSKGVFNKGTKVVMVPNTPTEKDDVIAENYLKSSYFRSSGHDGFMQDFVLLNHDRAVPLPDDIDLSIISYTELVTVSLHAIRRFEKKSISNKNTFGIWGDGNLGYITAILLRKLYPESKIYVFGKTDYKLSHFSFVDDVFFINKIPEGLTFDHAFECVGGRGSQSAINQMIDYISPEGSIALLGVSEFPVEVNTRLVLEKGLTLIGSSRSGSKDFQDVVDLYIQYPDIVDKLALLKGQEYEIATINDLTEAFEADLSTSWGKTVLKWIM”, the “soluble on expression in E. coli” value is given as “not soluble”. In the case of “MGSDKIHHHHHHMAHPLSRIIDQLKREPSRTGSIVITVFGDAIVPRGGSVWLGTLLEFFESLDIDSGVVRTAMSRLAADGWLTREKVGRNSFYRLADKGHQTFEAATRHIYDPPPSDWTGRFELLLINGEDRDASREALRNAGFGSPLPGVWVAPSGVPVPDEAAGAIRLEVSAEDDSGRRLLSASWPLDRTADAYLKFMKTFEPLRTAIGRGTTLSDADAFTARILLIHHYRRVVLRDPLLPESLLPADWPGRAARELCGEIYRALLAPSEQWLDGHGTNEKGPLPAARKLLERRFGA” it was “not soluble”. The entry for “MGSDKIHHHHHHMEETVQRIEPARLEDVAEPISDALAELSASSAVLGAKLHPRTAANLADLVRIMNTYYSNLIEGHNTRPRDIERALAGEFDKDQERRNLQVEAAAHVRLQGEIDRLAAEGQLPEPASLDFLRWLHAEFYRDADEAMLRIRGPDREFLMVPGRWRSQPEHDVTVGRHQPPSSDRVEAFMEHFASRYRFQRTGKAARILAIPAAHHRFNYIHPFPDGNGRVSRLMSHAMAHEAGIAAHGLWSISRGLARGLESRGDYKRMMDHADMPRQGDRDGRGNLSMRALADFTLWFLRVCIDQVSFMSSLFDLNQLARRLQRFVQRYDLKPEAFRLLEEALLRGEFDRGEASRIAGLPERTARRVFTEVLELGLLASDTPKGPVSLRFPVDTLDELFPKLFPET” is “not soluble”; for “MGRIKQGLDYFPLSTDFMHDRIVRRVMKREGDSAFTVLIYIMSYLYSGEGYYVRADTDFCDELSDQLFSTDNDTVRRVIRLFLEYGLFDSALYERYSILTSEDVQRQYLFITKRRSRHHICPDYCLLPEEKTTDEQPDTVAATGENVAVSPNIATASRDTATKTALIKRKEKEKKENIFPNPPFAKGGDEEEGSEGEKVAEGAGGGMREECDQRSATRKRNLTQEDIDRMQVPPDGCPRNFSGLLENLRLFRVPPAEQYAIVLKSNYGEIGGDIWKGFSVIRGSGGKIKLPGHYLLSVLNK” it is “not soluble”. The entry for “MAGRKEEELKDLTLLGNQGTTYSFTYNPNLLEVFDNKHPDRDYFVKFNCPEFTTLCPKTGQPDFATIYITYIPDKKCVESKSLKLYLFSFRNHGDFHEDCVNIIMNDLIKVMEPRYIEVWGKFTPRGGISIDPYCNWGRPGTKYEKMAEYRLLNHDLYPEKVDNR” is “not soluble”; for “MGSDKIHHHHHHMSILVPEQVREALDVHVVSFLGGRLNKHWLVDVCGHKLVLRRWAADREDAGYERDLRQAIRASGWPVARDVTALTEIAGELWSLAEFLPGEPHPEKNSAAELSLRGRLMAEFHQVTASLNPGRRKHWRLPDEILSDDHLEQVFEHCPDVRLRRLLFWHLQRGRQLAAGLPWSEQSLQLIHGDFTPWNLLYREGQLSGLLDCEMSRPEYRISEFALSWRGRYDALIHAYHAVSPLSAPEWNMLTPAWWALLLEGAYRNLVSGTEDQGWTAGMLLRRSPLMGIESCPC” it is “not soluble”; for “MEQYDQLYRLYKSVDTTTLRGYQEFVDLFPPLSSTVALEQWETASDRLDALKADITDEFPGTGETYAEIAARLTRDEAFTALDLYSKYDRSVNVLVLDVDETLRSAGDTDNEIPRDTLYLLTQFHEAGIPIVVCTGQTLENVKGFMIQGLGNDLVSSGQMSIVYESGNGVFTPKHGEDTKRLLYERLDGAVVDVFETVRRRVLSEAPDAVGKRCHLQGNEFNVTLKPNAEVGSDNAVEIIDESLCYLCGLVGDAIAAQVDAEVDDPAGYARAYFSRDPEILDVLEAGGLPTHADIEDAPEAFRDILERVDLGYYEGDAAELVSLELDKSAGVEEAFDVLGIDDPFALVMGDSKSDLRVMRWVDENDAGIAAAPAHSSPDVLDHVSSRDDLVYEAGDASTVLRTIYGISLVEQLDEQGE” it is “soluble”. Consider “MKCIESLGKTVDEAVKKALSELKVTEDKVEIKVIDEGSKGLLNIIGKREAKVKVTLKTDYIDEVRTFLRKVFEDMNLVIEIKIKEIGNDLFVNLFGKNIGLLIGYRGETLDSLQYLVNLVANKNHADGKYKRVILDTENYRAKREETLKRLALKISKRVKEEKSPFKLEPMNPYERRVIHSALQNDKYVRTYSEGEEPHRRVVVELKKS”, for which the “soluble on expression in E. coli” value was “not soluble”.

In the case of “MASMAAELRPSDGGSSLHMLDSLLMMGLSSGGGVGGGGSSQSQILDSAGAAELAALLLPQHSNDPLHLMSTGDAALGLAGPMAAAEHHQHHPHHQHHSVPATAGFPSQTPPPPLFSNATAGAAPATRVRAAGSCGSGGVAGGTTSHSSEDGVFHSADPHHHHQQHLQQPQPQQQQQQQQQPQHQQQQQQQQQQQPQQPQFHHHQPQQHQAQQAVAATAPAAAADHLFLPPAAAGAAGQQQAGWGAATGAHLFHSDAPNRPNGPKTPTNRNGYAMKPPPPAAAAAVMSGHAMAASGVVAGRGGGGGGCDAEEDELTFAAAAAAEVSSDDEVMGGRGGAVMGRAAVGGFRTPAPAPASAGAAVNVAAAAPAAPAGTWVPKGKPAVEVSAWAPAPAAPVAAAAAAAVAVSPTVAAFAAAPVVEAVALVRSQQRQEQEHQLVQVAAAEQQDQQQAKRPVRSSRRRAQESQQAAAEAQQAAQQAAAAQQQQQHTGSGNIVGDKQGKPQGGLQQGRPVATQPSPPPPAVATAAAAAAATAPVATAPVATVATAATADTMPQRLTAVQQHEAYPAVVRGTLDVRKACLPRFPLVAREQAEAELQSVATAALQQAAAAPGASAAVTAAAAAAAAAATAAGEGKAGEGKAATARRGGRGAAEAEAAAALPAVGASGNPGLDEAMGAYVRVAALYGDEAAAAVAECESLMADFDNKLQLGNLATTFAAAASPTAAASGRARGGARSGGVGGGGTKRVASGANASGANSSGMSGGGGGDSAGAEAAAGDEMEWAPGATSVDTATGGADDEDGEEEEGQQPGGAAAAAAVAAAGGEASQLAASIAATYGSQLVQVAASLAQRPKVGKLPPAATQLLKGWWDDNFVWPYPSEEDKKQLGEAAALNNTQINNWFINQRKRHWHKHFPNRRPPSTREEAERLLRAAGAI”, the “soluble on expression in E. coli” value was “not soluble”. In the case of “MGSDKIHHHHHHMTTLDRKIDFTVILSVTKANPNGDPLNGNRPRQNYDGYGEISDVAIKRKIRNRLQDMGESIFVQSNDRNLDGYASLRDRAEANDTIKKLMKTKNASDQVAAEACATWMDVRAFGQVFAFKGDKAGGVSVGVRGPVSIHTATSVAPIDVTSMQITKSVNSESGKERGSDTMGMKHRVDHGVYVFNGSINTQLAEKTNFTQEDAEKFKLALVSLFENDASSARPEGSMEVHKVYWWEHDSKLGRFSSAKVHRAVSVQALTDEPKSFLDYEIKVDALEGFTPEILDGL” it was “not soluble”. The entry for “MQNPIDSLLYVKISAEQAGKIFENLESSIPLPIQLSEPGQKEDFKAENIKPEMILAGMLTVFAYDRENPHITYYRKIFNLLRPDIRKEMTEAAIIKIKNNDFDMAEEILLSLEGLNPDDGITKLNLALLMEERSQFCEMRELFEDALSFNKRAEELYSELILFEPPLPGVFFNAAYFFIKQKNYIKAKSLLKTYLEIENDSSETAEFRKAKASELLKTISEQALDDELFQKAYKCIDLGEEEKAAESIKLFLRKNPKVWNAWFLLGWALRRMGRWEDARSSFLKTIELLENSEISDKEPLCDVYNELAICLMELELFDEAEKHLINALSLDSENIKIISNLGTLALKQGKQEEAEAFFRTVLEINPDDKIALNVLGKPRA” is “not soluble”. The entry for “MGSDKIHHHHHHMFLRFFSELRQAKVPVSLREYLLLMEALDKDVIDRSVEDFYFLSRASLVKDEKNLDKFDRVFSHVFKGLETVNDGLAADIPEEWLKALTEKFLTDEEKAQIEALGGFEKLMETLQERLREQKKRHEGGNKMIGSGGTSPFGNNGYNPEGVRIGQDKGRHGRAVKVWDKREYKNLDDSVELGTRNIKVALRRLRKFARTGAAEELDLNGTIKGTAEKGYLDIQLRPERRNAIKVLLFFDIGGSMDSHIKLCEELFSAARTEFKNLEFYYFHNCLYETVWKDNKRRQTEKIPTFDVLHKFPADYKVIFVGDATMSPYEITYPGGSVEHWNEEPGAIWMQRVTEIYQSCIWLNPTPERHWDYTQSIGVMRQIMADRMFPLTIEGLDKAMRELVRG” is “not soluble”. For “MSLDFAARQAAFADALLHPDRPVPDGVINARGEPDAARFAVYRNNVFVGLTKALAQRFPVTERLVGSEFFAAMARAYVQDHKPASPLIMEYGDDFPDFVAAFEPAGTLVYLPDVARLEAAWTEAYHAADSAPLDLAAFGAVAPEMLSDLRLLPHPSARLILSNFPVGSIWSAHQEAVVSPVSDWGGQAVLVVRPEMSVNVHVLPPRDAVFAAALFNAATLGEAAEAAFAAAPEFDFGTALVGLAGIGAFRAFQQYKGNEGHHHHHH”, the “soluble on expression in E. coli” value is reported as “not soluble”. The entry for “MKIEEEFISASVNPRSHCLTACKTAPLVAYASSLQIAVQTIPKDDSEVGVIKSTSERRHQKPITVLKRLKSSEIVADEFVTGGVDSRVVLWKLRGEHVEYVADLTGCDGSVGSVCGCVEDGRKVVAAAWVSETSNGFHAWWTSSIGDLLNSTEIKLDHKAFALCLDAISIQNSVLLAVGTSKRFVELYGESADKKSFSRLISVAGHTDWIHSIAFNDNPDHLLVASAGQDTYVRLWAIEPETDEKSENIREDSSTTPPDELTSSANLFSINYTPYRCSSHAVMQGHDDWVHSTVWSNDGRVLLTASSDKTCIIWKEIDNLWRDDVRLGIVGGGQAAGFFAAVFSSSLDLKDSGEKNAENVVISSSYFGGLHCWKSTDEQKTFWTALPMTGGHVGEVRDVDWHRSDDGDSGFLMSVGQDQTTRVFAKNGRQQSYVEIARPQVHGHDMQCLSFVNPSIFVSGAEEKVFRAFRAPKSFVKSLEAISGVPTEKSFGDSDLAEFGACVPALGLSNKPMVEGETVDGEHWEEDAFRAAPVVLTSPPTEDTLQQNTLWPEQHKLYGHGYEVYAVTANPTGNVLATACKSSHVEHSVVMLWSTSNWSKKSEIIGHQLTVTQIAWNPSGTRLLTVSRDRTAKLYTEKNGEVDGFDYDCVWTSGKQHTRIIWACDWIDDEHFVTASRDQKVIVWAESAGQTAPKATVKLDEPVTAIAAVSKDVIVAGLQTGELIVLRFDSEGLHVIEKIGANRIPIDSAVLRLRFSKNGRKLAVATTDAKLRIFNVSQ” is “not soluble”; for “MHTFFVTSTGFGVGLTSTSLGLVRALEYGGLKAGFYKPVAQQHPGNSKLEYSTELISRTLGLAPPAPLPLATVEHLLGEGQIDDLMEDIVRRFKQASEGYDVMVVEGMVPTRHVSYASRVNTRLASSLDADIILVSSAEDDALQAITDRIEIQAQFFGGAQNPRLLGVILNKIRTDHSDDLFEQLKNHSTLFHQSSFQILGCIPWEDSLNAPRMADVVTQLQAQ” it is “not soluble”; for “MAHHHHHHMCAYASILVVSAVHLCFCYRSHTSQSMTPAKALRLSSLPLATAWWRQHGLADRLEGFRACRQPTPRQRPLQRTADGGVSLGWAGLLAGAEQSRTSSITTATDRPPDLPLVLVSACLLSYPVTYRGTHTNLPASLRPTPLLFLTEVLFKELGLVQCVPVCPEVQWLGLPVPRVPLRLVRGSRGTDDARQRGSGWAAAQHSSSATLPSLSMSASDSVAIKGEREARYLVESSAEDHVLLRCDAPNDTFAEQSPSPQLHSAFLAQLVQDLKAVDGIILKSYSPSCGVRDARLYEEAVTSPPSSPCDQHACNACERAGKPTSASFIGRRPAASASAQRRFDLVDGFFTQQLRDFLTSMHGVGGERRADARCHSEAAAPVITCDRLLTDFYTEERLRRSPLAGKVKKRHVAGNASEAAPHLTSLDSFMESVLQHRDWRVSQHRC” it is “not soluble”.
